According to patent US20210340272A1 (ANWITA BIOSCIENCES, published 2021):

How the values were obtained:
[1] = biological target: T1, cell surface mesothelin on human cancer cell lines NCI-H226, OVCAR3, NCI-N87 and AsPC-1 (human, UniProt Q13421 296-598); assay: flow cytometry on NCI-H226 cells; Alexa Fluor 488 anti-human IgG secondary antibody
T1 construct: whole, on cells
Experimental: (§1) After washing, cells were incubated with Alexa Fluor 488 conjugated secondary antibody (anti-human IgG, Life Technologies) for 20 minutes at 4C. Cells were washed and then fluorescence intensity of the cells was quantified by flow cytometry.

[2] = biological target: T1, cell surface mesothelin on human cancer …; assay: flow cytometry on NCI-N87 cells; Alexa Fluor 488 anti-human IgG secondary antibody
Experimental: as §1

[3] = biological target: T1, cell surface mesothelin on human cancer …; assay: flow cytometry on AsPC-1 cells; Alexa Fluor 488 anti-human IgG secondary antibody
Experimental: as §1

T1 sequence (Q13421 other isoform, or with tags, fused parts or gaps limits assumed): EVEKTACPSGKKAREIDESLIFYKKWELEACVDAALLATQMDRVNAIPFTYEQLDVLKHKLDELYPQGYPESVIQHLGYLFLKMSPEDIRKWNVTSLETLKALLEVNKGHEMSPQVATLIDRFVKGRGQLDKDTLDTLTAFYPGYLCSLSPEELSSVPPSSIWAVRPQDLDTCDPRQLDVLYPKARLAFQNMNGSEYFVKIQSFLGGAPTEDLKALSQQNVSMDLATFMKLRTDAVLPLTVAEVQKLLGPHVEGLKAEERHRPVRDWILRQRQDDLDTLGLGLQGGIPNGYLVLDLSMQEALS

EC50 (read off the curve) [1]	EC50 (read off the curve) [2]	EC50 (read off the curve) [3]	Binder
~10 ng/mL	~4 ng/mL	~6 ng/mL	R3C7 (original llama VHH, Anti-MSLN-6) as human IgG1 Fc fusion (Fc fusion, also called R3-E08(C7); not shown: human IgG1 Fc (hIgG1 Fc)) QVQLVESGGGLVEAGDSLRLSCVVSGRTLESYVMAWFRQAPGKEREAVASINWSSGRLIYADFVKGRFTISRDYEKNTIYLSMNNLKPEDTAVYYCAAGRYWGQGTQVTVSS
~10 ng/mL	~5 ng/mL	~7 ng/mL	R2G12 (original llama VHH, Anti-MSLN-9) as human IgG1 Fc fusion (Fc fusion, also called R2-G06(G12); not shown: human IgG1 Fc (hIgG1 Fc)) QVQLVESGGGLVQAGGSLRLSCAASGITFPVNAYGWYRQAPGKQRDLVAIISAGGTTNYADSVKGRFAISKDNVNNTVYLQMNSLTSEDTGVYYCYLQRRIGMLRDYWGQGTQVTVSS
